Measured values from patent publication US20240383985A1 (published 2024).
Where two headings read alike, the source gives them in different places.

Tests used:
[1] = biological target: T1, CD38 naturally expressed on Daudi cells (human, UniProt P28907 1-300); assay: FACS; FIG. 24
[2] = biological target: T2, CD33 naturally expressed on HL60 cells (human, UniProt P20138 18-364); assay: FACS
[3] = biological target: T2, CD33 naturally expressed on HL60 cells; assay: FACS; remark: listed apart in the source
[4] = biological target: T1, CD38 naturally expressed on Daudi cells; assay: FACS; FIG. 23
CS1-Fc = biological target: T3, CS1-Fc (UniProt Q9NQ25 23-226); assay: ELISA
T3 chain: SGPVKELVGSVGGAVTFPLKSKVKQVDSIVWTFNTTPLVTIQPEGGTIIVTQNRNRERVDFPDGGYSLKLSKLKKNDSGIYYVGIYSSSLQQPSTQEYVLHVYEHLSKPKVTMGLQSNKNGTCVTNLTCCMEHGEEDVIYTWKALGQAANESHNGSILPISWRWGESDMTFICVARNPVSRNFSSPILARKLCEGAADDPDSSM

T2 sequence (P20138 18-364): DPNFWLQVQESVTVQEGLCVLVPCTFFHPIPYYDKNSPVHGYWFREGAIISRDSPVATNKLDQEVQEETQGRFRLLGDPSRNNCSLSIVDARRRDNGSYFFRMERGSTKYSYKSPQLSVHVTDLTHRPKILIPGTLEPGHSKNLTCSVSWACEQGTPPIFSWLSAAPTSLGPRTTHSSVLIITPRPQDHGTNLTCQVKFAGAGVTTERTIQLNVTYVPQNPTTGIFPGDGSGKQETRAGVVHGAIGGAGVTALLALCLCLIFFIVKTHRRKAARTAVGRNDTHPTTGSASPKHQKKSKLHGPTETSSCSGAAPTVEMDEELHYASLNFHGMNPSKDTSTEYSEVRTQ

| Binder | EC50 [1] [nM] | EC50 [2] [nM] | EC50 (CS1-Fc) [µg/mL] | further results |
| --- | --- | --- | --- | --- |
| QP34483449 (antibody, V domains shown) VH: EVQLVESGGGLVQPGGSLRLSCAASGFDFSRYWMSWVRQAPGKGLEWIGEINPDSSTINYAPSLKDKFIISRDNAKNSLYLQMNSLRAEDTAVYYCARPDGNYWYFDVWGQGTLVTVSS VL: MDMRVPAQLLGLLLLWFPGSRCDIQMTQSPSSLSASVGDRVTITCKASQDVGIAVAWYQQKPGKVPKLLIYWASTRHTGVPDRFSGSGSGTDFTLTISSLQPEDVATYYCQQYSSYPYTFGQGTKVEIKR | 18.4 |  |  |  |
| CD33 antibody IgG1 wt subtype QP41154116 (antibody, V domains shown) VH: QVQLVQSGAEVKKPGESVKVSCKASGYTFTNYGMNWVKQAPGQGLEWMGWINTYTGEPTYADKFQGRVTMTTDTSTSTAYMEIRNLGGDDTAVYYCARWSWSDGYYVYFDYWGQGTSVTVSS VL: DIVMTQSPDSLTVSLGERTTINCKSSQSVLDSSTNKNSLAWYQQKPGQPPKLLLSWASTRESGIPDRFSGSGSGTDFTLTIDSPQPEDSATYYCQQSAHFPITFGQGTRLEIKR |  | 3.31 |  | EC50 [3]: 2.89 nM |
| QP42714274 (antibody) chain 1: not shown chain 2: EVQLLESGGGLVQPGGSLRLSCAVSGFTFNSFAMSWVRQAPGKGLEWVSAISGSGGGTYYADSVKGRFTISRDNSKNTLYLQMNSLRAEDTAVYFCAKDKILWFGEPVFDYWGQGTLVTVSSASTKGPSVFPLAPSSKSTSGGTAALGCLVKDYFPEPVTVSWNSGALTSGVHTFPAVLQSSGLYSLSSVVTVPSSSLGTQTYICNVNHKPSNTKVDKKVEPKSCDKTHTCPPCPAPEAAGGPSVFLFPPKPKDTLMISRTPEVTCVVVDVSHEDPEVKFNWYVDGVEVHNAKTKPREEQYNSTYRVVSVLTVLHQDWLNGKEYKCKVSNKALPAPIEKTISKAKGQPREPQVYTLPPSREEMTKNQVSLSCAVKGFYPSDIAVEWESNGQPENNYKTTPPVLDSDGSFFLVSKLTVDKSRWQQGNVFSCSVMHEALHNRYTQKSLSLSPGKGGSHHHHHH chain 3: not shown chain 4: not shown | 4.76 |  |  |  |
| QP42764325 (antibody) chain 1: DIQMTQSPSSLSASVGDRVTITCKASQDVGIAVAWYQQKPGKVPKLLIYWASTRHTGVPDRFSGSGSGTDFTLTISSLQPEDVATYYCQQYSSYPYTFGQGTKVEIKRTVAAPSVFIFPPSDEQLKSGTASVVCLLNNFYPREAKVQWKVDNALQSGNSQESVTEQDSKDSTYSLSSTLTLSKADYEKHKVYACEVTHQGLSSPVTKSFNRGEC chain 2: EVQLVESGGGLVQPGGSLRLSCAASGFDFSRYWMSWVRQAPGKGLEWIGEINPDSSTINYAPSLKDKFIISRDNAKNSLYLQMNSLRAEDTAVYYCARPDGNYWYFDVWGQGTLVTVSSASTKGPSVFPLAPSSKSTSGGTAALGCLVKDYFPEPVTVSWNSGALTSGVHTFPAVLQSSGLYSLSSVVTVPSSSLGTQTYICNVNHKPSNTKVDKKVEPKSCDKTHTCPPCPAPEAAGGPSVFLFPPKPKDTLMISRTPEVTCVVVDVSHEDPEVKFNWYVDGVEVHNAKTKPREEQYNSTYRVVSVLTVLHQDWLNGKEYKCKVSNKALPAPIEKTISKAKGQPREPQVYTLPPSREEMTKNQVSLSCAVKGFYPSDIAVEWESNGQPENNYKTTPPVLDSDGSFFLVSKLTVDKSRWQQGNVFSCSVMHEALHNRYTQKSLSLSPGK chain 3: not shown chain 4: not shown | 8.56 |  |  | EC50 [4]: 10.2 nM |
| CS1/CD16A/IL-15 trifunctional fusion protein QP7434262 (FC wildtype) (bispecific antibody) chain 1: not shown chain 2: not shown light: DIQMTQSPSSLSASVGDRVTITCKASQDVGIAVAWYQQKPGKVPKLLIYWASTRHTGVPDRFSGSGSGTDFTLTISSLQPEDVATYYCQQYSSYPYTFGQGTKVEIKRTVAAPSVFIFPPSDEQLKSGTASVVCLLNNFYPREAKVQWKVDNALQSGNSQESVTEQDSKDSTYSLSSTLTLSKADYEKHKVYACEVTHQGLSSPVTKSFNRGEC heavy: EVQLVESGGGLVQPGGSLRLSCAASGFDFSRYWMSWVRQAPGKGLEWIGEINPDSSTINYAPSLKDKFIISRDNAKNSLYLQMNSLRAEDTAVYYCARPDGNYWYFDVWGQGTLVTVSSASTKGPSVFPLAPSSKSTSGGTAALGCLVKDYFPEPVTVSWNSGALTSGVHTFPAVLQSSGLYSLSSVVTVPSSSLGTQTYICNVNHKPSNTKVDKKVEPKSCDKTHTCPPCPAPELLGGPSVFLFPPKPKDTLMISRTPEVTCVVVDVSHEDPEVKFNWYVDGVEVHNAKTKPREEQYNSTYRVVSVLTVLHQDWLNGKEYKCKVSNKALPAPIEKTISKAKGQPREPQVYTLPPSREEMTKNQVSLSCAVKGFYPSDIAVEWESNGQPENNYKTTPPVLDSDGSFFLVSKLTVDKSRWQQGNVFSCSVMHEALHNRYTQKSLSLSPGKGGSHHHHHH |  |  | ~0.839 |  |
| QP42764279 (antibody) chain 1: DIQMTQSPSSLSASVGDRVTITCKASQDVGIAVAWYQQKPGKVPKLLIYWASTRHTGVPDRFSGSGSGTDFTLTISSLQPEDVATYYCQQYSSYPYTFGQGTKVEIKRTVAAPSVFIFPPSDEQLKSGTASVVCLLNNFYPREAKVQWKVDNALQSGNSQESVTEQDSKDSTYSLSSTLTLSKADYEKHKVYACEVTHQGLSSPVTKSFNRGEC chain 2: EVQLVESGGGLVQPGGSLRLSCAASGFDFSRYWMSWVRQAPGKGLEWIGEINPDSSTINYAPSLKDKFIISRDNAKNSLYLQMNSLRAEDTAVYYCARPDGNYWYFDVWGQGTLVTVSSASTKGPSVFPLAPSSKSTSGGTAALGCLVKDYFPEPVTVSWNSGALTSGVHTFPAVLQSSGLYSLSSVVTVPSSSLGTQTYICNVNHKPSNTKVDKKVEPKSCDKTHTCPPCPAPEAAGGPSVFLFPPKPKDTLMISRTPEVTCVVVDVSHEDPEVKFNWYVDGVEVHNAKTKPREEQYNSTYRVVSVLTVLHQDWLNGKEYKCKVSNKALPAPIEKTISKAKGQPREPQVYTLPPSREEMTKNQVSLSCAVKGFYPSDIAVEWESNGQPENNYKTTPPVLDSDGSFFLVSKLTVDKSRWQQGNVFSCSVMHEALHNRYTQKSLSLSPGK chain 3: not shown chain 4: not shown |  |  |  | EC50 [4]: 8.99 nM |
| CS1/CD16A/IL-15 trifunctional fusion protein QP43394342 (FC with L234A/L235A mutation for eliminating function) (bispecific antibody) chain 1: not shown chain 2: not shown light: DIQMTQSPSSLSASVGDRVTITCKASQDVGIAVAWYQQKPGKVPKLLIYWASTRHTGVPDRFSGSGSGTDFTLTISSLQPEDVATYYCQQYSSYPYTFGQGTKVEIKRTVAAPSVFIFPPSDEQLKSGTASVVCLLNNFYPREAKVQWKVDNALQSGNSQESVTEQDSKDSTYSLSSTLTLSKADYEKHKVYACEVTHQGLSSPVTKSFNRGEC heavy: EVQLVESGGGLVQPGGSLRLSCAASGFDFSRYWMSWVRQAPGKGLEWIGEINPDSSTINYAPSLKDKFIISRDNAKNSLYLQMNSLRAEDTAVYYCARPDGNYWYFDVWGQGTLVTVSSASTKGPSVFPLAPSSKSTSGGTAALGCLVKDYFPEPVTVSWNSGALTSGVHTFPAVLQSSGLYSLSSVVTVPSSSLGTQTYICNVNHKPSNTKVDKKVEPKSCDKTHTCPPCPAPEAAGGPSVFLFPPKPKDTLMISRTPEVTCVVVDVSHEDPEVKFNWYVDGVEVHNAKTKPREEQYNSTYRVVSVLTVLHQDWLNGKEYKCKVSNKALPAPIEKTISKAKGQPREPQVYTLPPSREEMTKNQVSLSCAVKGFYPSDIAVEWESNGQPENNYKTTPPVLDSDGSFFLVSKLTVDKSRWQQGNVFSCSVMHEALHNRYTQKSLSLSPGKGGSHHHHHH |  |  | 1.77 |  |
| QP344944564368 (antibody) chain 1: not shown chain 2: MEFGLSWLFLVAILKGVQCEVQLVESGGGLVQPGGSLRLSCAASGFDFSRYWMSWVRQAPGKGLEWIGEINPDSSTINYAPSLKDKFIISRDNAKNSLYLQMNSLRAEDTAVYYCARPDGNYWYFDVWGQGTLVTVSSASTKGPSVFPLAPSSKSTSGGTAALGCLVKDYFPEPVTVSWNSGALTSGVHTFPAVLQSSGLYSLSSVVTVPSSSLGTQTYICNVNHKPSNTKVDKKVEPKSCDKTHTCPPCPAPEAAGGPSVFLFPPKPKDTLMISRTPEVTCVVVDVSHEDPEVKFNWYVDGVEVHNAKTKPREEQYNSTYRVVSVLTVLHQDWLNGKEYKCKVSNKALPAPIEKTISKAKGQPREPQVYTLPPSREEMTKNQVSLSCAVKGFYPSDIAVEWESNGQPENNYKTTPPVLDSDGSFFLVSKLTVDKSRWQQGNVFSCSVMHEALHNRYTQKSLSLSPGKGGSHHHHHH chain 3: MDMRVPAQLLGLLLLWFPGSRCDIQMTQSPSSLSASVGDRVTITCKASQDVGIAVAWYQQKPGKVPKLLIYWASTRHTGVPDRFSGSGSGTDFTLTISSLQPEDVATYYCQQYSSYPYTFGQGTKVEIKRTVAAPSVFIFPPSDEQLKSGTASVVCLLNNFYPREAKVQWKVDNALQSGNSQESVTEQDSKDSTYSLSSTLTLSKADYEKHKVYACEVTHQGLSSPVTKSFNRGEC |  |  | 5.24 |  |
| CD33/CD16A/IL-15 trifunctional fusion protein QP42914285 (FC with L234A/L235A mutation for eliminating function) (bispecific antibody) light: SYVLTQPSSVSVAPGQTATISCGGHNIGSKNVHWYQQRPGQSPVLVIYQDNKRPSGIPERFSGSNSGNTATLTISGTQAMDEADYYCQVWDNYSVLFGGGTKLTVLRTVAAPSVFIFPPSDEQLKSGTASVVCLLNNFYPREAKVQWKVDNALQSGNSQESVTEQDSKDSTYSLSSTLTLSKADYEKHKVYACEVTHQGLSSPVTKSFNRGEC heavy: QVQLVQSGAEVKKPGESLKVSCKASGYTFTSYYMHWVRQAPGQGLEWMGIINPSGGSTSYAQKFQGRVTMTRDTSTSTVYMELSSLRSEDTAVYYCARGSAYYYDFADYWGQGTLVTVSSASTKGPSVFPLAPSSKSTSGGTAALGCLVKDYFPEPVTVSWNSGALTSGVHTFPAVLQSSGLYSLSSVVTVPSSSLGTQTYICNVNHKPSNTKVDKKVEPKSCDKTHTCPPCPAPEAAGGPSVFLFPPKPKDTLMISRTPEVTCVVVDVSHEDPEVKFNWYVDGVEVHNAKTKPREEQYNSTYRVVSVLTVLHQDWLNGKEYKCKVSNKALPAPIEKTISKAKGQPREPQVYTLPPSREEMTKNQVSLSCAVKGFYPSDIAVEWESNGQPENNYKTTPPVLDSDGSFFLVSKLTVDKSRWQQGNVFSCSVMHEALHNRYTQKSLSLSPGKGGSHHHHHH chain 1: not shown chain 2: not shown |  | 4.51 |  | EC50 [3]: 3.08 nM |
| QP43354336 (antibody, V domains shown) VH: QVQLVQSGAEVKKPGESLKVSCKASGYTFTSYYMHWVRQAPGQGLEWMGIINPSGGSTSYAQKFQGRVTMTRDTSTSTVYMELSSLRSEDTAVYYCARGSAYYYDFADYWGQGTLVTVSS VL: MDMRVPAQLLGLLLLWFPGSRCSYVLTQPSSVSVAPGQTATISCGGHNIGSKNVHWYQQRPGQSPVLVIYQDNKRPSGIPERFSGSNSGNTATLTISGTQAMDEADYYCQVWDNYSVLFGGGTKLTVLR | ~0.289 | 21.4 |  |  |
